In US20250237662A1:
Blank lines part the entries; values can stand above or below the substance they belong to.

Tests used:
[1] = molecular target: humanized development candidate monoclonal antibody IgG4 (hIgG4); test: Gyrolab, mAb as capture, hIgG4 8 ng/ml
[2] = molecular target: humanized development candidate monoclonal antibody IgG4 (hIgG4); test: Gyrolab, mAb as capture, hIgG4 40 ng/ml
[3] = molecular target: humanized development candidate monoclonal antibody IgG4 (hIgG4); test: Gyrolab, mAb as capture, hIgG4 1.6 ng/ml
[4] = molecular target: humanized development candidate monoclonal antibody IgG4 (hIgG4); test: Gyrolab, mAb as capture, hIgG4 200 ng/ml
[5] = molecular target: humanized development candidate monoclonal antibody IgG4 (hIgG4); test: Gyrolab, mAb as capture, hIgG4 0.32 ng/ml
[6] = molecular target: humanized development candidate monoclonal antibody IgG4 (hIgG4); test: Gyrolab, mAb as capture, hIgG4 1000 ng/ml
[7] = molecular target: humanized development candidate monoclonal antibody IgG4 (hIgG4); test: Gyrolab, mAb as capture, hIgG4 5000 ng/ml
[8] = molecular target: humanized development candidate monoclonal antibody IgG4 (hIgG4); test: SPR (Biacore T200), under the same conditions as the rabbit clones, antigen 80-0 nM, 1:1 fit
[9] = molecular target: humanized therapeutic monoclonal antibody IgG1 (hIgG1); test: as above
[10] = molecular target: humanized development candidate monoclonal antibody IgG4 (hIgG4); test: Gyrolab, capture reagent, hIgG4 8 ng/ml
[11] = molecular target: humanized development candidate monoclonal antibody IgG4 (hIgG4); test: Gyrolab, capture reagent, hIgG4 40 ng/ml
[12] = molecular target: humanized development candidate monoclonal antibody IgG4 (hIgG4); test: Gyrolab, capture reagent, hIgG4 1.6 ng/ml
[13] = molecular target: humanized development candidate monoclonal antibody IgG4 (hIgG4); test: Gyrolab, capture reagent, hIgG4 200 ng/ml
[14] = molecular target: humanized development candidate monoclonal antibody IgG4 (hIgG4); test: Gyrolab, capture reagent, hIgG4 0.32 ng/ml
[15] = molecular target: humanized development candidate monoclonal antibody IgG4 (hIgG4); test: Gyrolab, capture reagent, hIgG4 1000 ng/ml
[16] = molecular target: humanized development candidate monoclonal antibody IgG4 (hIgG4); test: Gyrolab, capture reagent, hIgG4 5000 ng/ml
[17] = molecular target: humanized development candidate monoclonal antibody IgG4 (hIgG4); test: Gyrolab, capture reagent, hIgG4 8 ng/ml, against the blank
[18] = molecular target: humanized development candidate monoclonal antibody IgG4 (hIgG4); test: Gyrolab, capture reagent, hIgG4 40 ng/ml, against the blank
[19] = molecular target: humanized development candidate monoclonal antibody IgG4 (hIgG4); test: Gyrolab, capture reagent, hIgG4 1.6 ng/ml, against the blank
[20] = molecular target: humanized development candidate monoclonal antibody IgG4 (hIgG4); test: Gyrolab, capture reagent, hIgG4 200 ng/ml, against the blank
[21] = molecular target: humanized development candidate monoclonal antibody IgG4 (hIgG4); test: Gyrolab, capture reagent, hIgG4 0.32 ng/ml, against the blank
[22] = molecular target: humanized development candidate monoclonal antibody IgG4 (hIgG4); test: Gyrolab, capture reagent, hIgG4 1000 ng/ml, against the blank
[23] = molecular target: humanized development candidate monoclonal antibody IgG4 (hIgG4); test: Gyrolab, capture reagent, hIgG4 5000 ng/ml, against the blank
[24] = molecular target: drug: a monoclonal antibody of human IgG4 isotype (PandA assay); test: PandA assay, mAb 1 ug/ml in monkey plasma
[25] = molecular target: drug: a monoclonal antibody of human IgG4 isotype (PandA assay); test: PandA assay, mAb 0.5 ug/ml in monkey plasma
[26] = molecular target: drug: a monoclonal antibody of human IgG4 isotype (PandA assay); test: PandA assay, mAb 0.75 ug/ml in monkey plasma
[27] = molecular target: drug: a monoclonal antibody of human IgG4 isotype (PandA assay); test: PandA assay, signal to noise against the negative control
[28] = molecular target: drug: a monoclonal antibody of human IgG4 isotype (PandA assay); test: PandA assay (PEG precipitation, acid dissociation, MSD plate, sulfo-TAG-drug), mAb 5 ug/ml in monkey plasma

Av. Resp. [1]: 18.4 | Av. Resp. [2]: 33.8 | Av. Resp. [3]: 14.2 | Av. Resp. [4]: 86.7 | Av. Resp. [5]: 13.6 | Av. Resp. [6]: 214 | Av. Resp. [7]: 283 | Kd [8]: 1.57 nM | Kd [9]: 1.82 nM
Substance: mouse anti-human IgG monoclonal antibody MCA5748G (Bio-Rad)

Av. Resp. [10]: 9.3 | Av. Resp. [11]: 26.1 | Av. Resp. [12]: 5.3 | Av. Resp. [13]: 94.1 | Av. Resp. [14]: 4.6 | Av. Resp. [15]: 267 | Av. Resp. [16]: 468 | S/B [17]: 2.1 | S/B [18]: 5.7 | S/B [19]: 1.2 | S/B [20]: 20.8 | S/B [21]: 1 | S/B [22]: 59 | S/B [23]: 103
Substance: Gyrolab generic PK assay capture reagent

ECL Signal [24]: 182 | ECL Signal [25]: 130 | ECL Signal [26]: 148 | S/N [27]: 1.37 | ECL Signal [28]: 756
Substance: mouse anti-Fc monoclonal antibody clone JDC-10 (Southern Biotech, Cat. No. 9040-01)
